Laboratory results as given in patent publication US20190071518A1 (PIERRE FABRE MEDICAMENT, published 2019).
Substitutions are numbered along the chain they refer to.

How the values were obtained:
[1] = biological target: T1, ADAM17 on the surface of human tumour cells (A431 substrate-Nluc cells; NCI-H1299) (human, UniProt P78536 215-824); experiment: flow cytometry on the tumour cell line NCI-H1299, antibody titration
T1 construct: Endogenous ADAM17 of human tumour cell lines; also called ADAM17 at the plasma membrane; tumour cell line NCI-H1299

[2] = biological target: T2, rhADAM10 (human, UniProt O14672); experiment: ELISA on coated rhADAM10 (2.5 µg/ml), OD 450 nm
T2 construct: also called recombinant human ADAM10 (AD936, R&D Systems)
T2 sequence (recombinant ADAM10 polypeptide, looked up): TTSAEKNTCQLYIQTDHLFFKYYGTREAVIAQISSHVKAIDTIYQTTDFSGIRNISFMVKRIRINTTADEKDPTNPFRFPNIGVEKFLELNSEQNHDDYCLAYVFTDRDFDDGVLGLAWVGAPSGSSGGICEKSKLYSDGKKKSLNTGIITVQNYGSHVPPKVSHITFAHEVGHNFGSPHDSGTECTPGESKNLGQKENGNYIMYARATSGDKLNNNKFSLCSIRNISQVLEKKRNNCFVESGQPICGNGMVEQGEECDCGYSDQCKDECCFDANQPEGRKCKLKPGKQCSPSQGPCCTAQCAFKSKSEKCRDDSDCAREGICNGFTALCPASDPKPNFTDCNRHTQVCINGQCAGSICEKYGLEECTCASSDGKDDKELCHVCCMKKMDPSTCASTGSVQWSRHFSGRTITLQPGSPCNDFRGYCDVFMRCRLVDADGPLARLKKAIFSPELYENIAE
Procedure: The binding of 1022C3 to human ADAM17 and ADAM10 was determined by ELISA in comparison to the anti human ADAM10 antibody AB936 (R&D Systems). A ninety six well ELISA plate was coated with 100 μl/well of recombinant human (rh)ADAM17 (930-ADB, R&D Systems) at a concentration of 1 μg/ml or rhADAM10 (AD936, R&D Systems) at a concentration of 2.5 μg/ml in PBS. The coating solution was incubated overnight at 4° C. The plates were then blocked with PBS containing 0.5% gelatin (#22151, Serva Electrophoresis GmbH, Heidelberg, Germany) for 2 h at 37° C. The saturation buffer discarded by flicking plates, 100 μl of 1022C3 at a concentration of 1 μg/ml in PBS or 5 μg/ml of anti human ADAM10 polyclonal (AB936, R&D Systems) was added to the ELISA plates and incubated for 1 h at 37° C. After three washes, 100 μl horseradish peroxidase-conjugated anti human (A7164, Sigma) or anti goat (115-035-164, Jackson ImmunoResearch Europe Ltd) antibody solution diluted 1/5000 in PBS were incubated for 1 h at 37° C. After three washes, 100 μl/well TMB substrate (#UP664782, Uptima, Interchim, France) was added. After a 10 min incubation time at room temperature, the reaction was stopped using 1 M sulphuric acid and the optical density at 450 nm was measured (FIG. 7).

[3] = biological target: murine ADAM17 M1-671 (p-c-d-mpd) human Fc fusion (murine; human) (UniProt Q9Z0F8); experiment: SPR (Biacore X100), about 700 RU m1022C3 captured, analyte 250 nM, FC2-FC1
[4] = biological target: murine/human chimeric ADAM17 M1-602H603-671 (p-c-d-mpd (Nter)-MPD (Cter)) human Fc fusion (murine; human) (UniProt Q9Z0F8); experiment: as above
[5] = biological target: ADAM17 fragments and chimeric constructs giving the positive response; experiment: as above
[6] = biological target: soluble ADAM17 (extracellular domain of ADAM-17) (human, UniProt P78536 215-671); experiment: SPR (Biacore), antibody captured on rabbit anti-mouse IgG, soluble ADAM17 400-12.5 nM, 1:1 Langmuir fit
Procedure: The antibody (ligand) was bound to the second flowcell of a Biacore CM5 sensor chip (GE Healthcare) activated on both flowcells with a Rabbit anti-Mouse (RAM) IgG (H+L) covalently linked to the carboxymethyldextran matrix. Soluble ADAM17 (analyte) at concentrations ranging from 400 to 12.5 nM obtained by a two fold dilution scheme (assuming a molecular weight of 52 kDa) was injected onto the surface at a flow rate of 30 μl/min in a 120 s pulse (association) plus an extra 180 s delay for the dissociation phase measurement. The RAM surface was regenerated using NaOH 30 mM, NaCl 150 mM and 10 mM Glycine, HCl pH 1.5 buffer solutions. Curves obtained at each concentration were double referenced by first subtracting the signal from the reference FC1 surface (RAM without any mouse anti-TACE mAb) followed by subtraction of the signal obtained from a running buffer injection (Biacore HBS-EP buffer).
Data were processed using BIAevaluation 3.1 software using the 1:1 Langmuir model. The suitability of the fit was measured by the values of the Refractive Index (RI) which have to tend to zero and the κ² value.

[7] = biological target: T3, human ADAM17 H603-671 (MPD (Cter)) human Fc fusion (human, UniProt P78536 603-671); experiment: SPR (Biacore X100), about 700 RU m1022C3 captured, analyte 250 nM, FC2-FC1
T3 construct: not shown: human Fc domain at the C-terminus
Procedure: (§1) The experiment was performed on a Biacore X100 device. The 1022C3 is used as the ligand and the ADAM17 fragments and chimeric constructs are used as the analyte. The experiment is run at 10 μl/min at 25° C. on a rabbit anti-mouse polyclonal antibody (Mouse antibody capture kit, BR-1008-38, GE Healthcare) covalently linked to the matrix of both flowcells of a CM5 sensorchip (BR-1000-12) using the amine coupling kit (BR-1000-50, GE Healthcare), using the HBS-EP+ buffer (BR-1008-26, GE Healthcare) as the running buffer. This buffer is also used for the dilutions of the ligand and the analytes.
(§2) A solution of the 1022C3 at the concentration of 15 μg/ml is injected on the second flowcell (working surface) during 1 minute. At each cycle, one of the ADAM17 chimeric constructions (with a human Fc domain at the c-terminal positions) is injected at the concentration of 250 nM during 3 minutes on both flow cells: the reference without any 1022C3 (FC1) and the working cell with around 700 RU of m1022C3 (FC2). The registered signal corresponds to the difference between FC2 and FC1 responses.

[8] = biological target: T4, human ADAM17 H223-602 (C-D MPD (Nter)) human Fc fusion (human, UniProt P78536 223-602); experiment: as above
T4 construct: not shown: human Fc domain at the C-terminus
Procedure: as §1, §2

[9] = biological target: T5, human ADAM17 H1-474 (P-C) human Fc fusion (human, UniProt P78536 18-474); experiment: as above
T5 construct: Range as printed; not shown: human Fc domain at the C-terminus
Procedure: as §1, §2

[10] = biological target: T6, human ADAM17 H475-563 (D) human Fc fusion (human, UniProt P78536 475-563); experiment: as above
T6 construct: not shown: human Fc domain at the C-terminus
Procedure: as §1, §2

[11] = biological target: T7, human ADAM17 H475-602 (D-MPD (Nter)) human Fc fusion (human, UniProt P78536 475-602); experiment: as above
T7 construct: not shown: human Fc domain at the C-terminus
Procedure: as §1, §2

[12] = biological target: T8, human ADAM17 H223-563 (C-D) human Fc fusion (human, UniProt P78536 223-563); experiment: as above
T8 construct: not shown: human Fc domain at the C-terminus
Procedure: as §1, §2

Chain of soluble ADAM17 (extracellular domain of ADAM-17) (P78536 215-671): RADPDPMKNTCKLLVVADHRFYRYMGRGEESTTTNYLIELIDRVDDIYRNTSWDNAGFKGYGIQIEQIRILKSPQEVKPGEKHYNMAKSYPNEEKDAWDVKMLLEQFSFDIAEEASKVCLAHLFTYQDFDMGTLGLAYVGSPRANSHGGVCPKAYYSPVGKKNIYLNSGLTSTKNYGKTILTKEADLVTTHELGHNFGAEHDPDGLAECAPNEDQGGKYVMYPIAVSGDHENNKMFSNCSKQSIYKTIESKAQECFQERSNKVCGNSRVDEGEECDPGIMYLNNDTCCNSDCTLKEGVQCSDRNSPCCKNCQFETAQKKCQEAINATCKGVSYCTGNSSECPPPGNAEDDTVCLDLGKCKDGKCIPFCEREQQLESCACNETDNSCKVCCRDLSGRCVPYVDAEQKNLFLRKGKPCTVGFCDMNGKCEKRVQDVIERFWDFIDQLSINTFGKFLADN
T1 sequence (P78536 215-824 limits assumed): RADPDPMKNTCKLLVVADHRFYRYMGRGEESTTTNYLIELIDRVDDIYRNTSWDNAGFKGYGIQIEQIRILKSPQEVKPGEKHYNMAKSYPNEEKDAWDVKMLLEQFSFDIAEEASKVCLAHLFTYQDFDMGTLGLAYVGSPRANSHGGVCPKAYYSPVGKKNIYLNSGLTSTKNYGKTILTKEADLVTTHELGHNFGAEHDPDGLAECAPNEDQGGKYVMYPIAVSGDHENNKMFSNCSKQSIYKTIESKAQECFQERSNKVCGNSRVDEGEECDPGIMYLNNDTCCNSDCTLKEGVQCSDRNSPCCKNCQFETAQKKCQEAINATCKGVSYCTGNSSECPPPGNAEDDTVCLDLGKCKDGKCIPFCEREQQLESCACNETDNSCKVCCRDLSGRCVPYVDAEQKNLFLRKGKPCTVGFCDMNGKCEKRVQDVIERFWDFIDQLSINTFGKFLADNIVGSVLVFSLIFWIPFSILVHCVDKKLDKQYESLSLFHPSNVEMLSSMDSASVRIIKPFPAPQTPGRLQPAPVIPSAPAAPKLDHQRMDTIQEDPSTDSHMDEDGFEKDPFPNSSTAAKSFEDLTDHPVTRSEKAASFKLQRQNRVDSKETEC
Chain of murine/human chimeric ADAM17 M1-602H603-671 (p-c-d-mpd (Nter)-MPD (Cter)) human Fc fusion (murine; human) (Q9Z0F8 other isoform, or with tags, fused parts or gaps mutant limits assumed, form in doubt): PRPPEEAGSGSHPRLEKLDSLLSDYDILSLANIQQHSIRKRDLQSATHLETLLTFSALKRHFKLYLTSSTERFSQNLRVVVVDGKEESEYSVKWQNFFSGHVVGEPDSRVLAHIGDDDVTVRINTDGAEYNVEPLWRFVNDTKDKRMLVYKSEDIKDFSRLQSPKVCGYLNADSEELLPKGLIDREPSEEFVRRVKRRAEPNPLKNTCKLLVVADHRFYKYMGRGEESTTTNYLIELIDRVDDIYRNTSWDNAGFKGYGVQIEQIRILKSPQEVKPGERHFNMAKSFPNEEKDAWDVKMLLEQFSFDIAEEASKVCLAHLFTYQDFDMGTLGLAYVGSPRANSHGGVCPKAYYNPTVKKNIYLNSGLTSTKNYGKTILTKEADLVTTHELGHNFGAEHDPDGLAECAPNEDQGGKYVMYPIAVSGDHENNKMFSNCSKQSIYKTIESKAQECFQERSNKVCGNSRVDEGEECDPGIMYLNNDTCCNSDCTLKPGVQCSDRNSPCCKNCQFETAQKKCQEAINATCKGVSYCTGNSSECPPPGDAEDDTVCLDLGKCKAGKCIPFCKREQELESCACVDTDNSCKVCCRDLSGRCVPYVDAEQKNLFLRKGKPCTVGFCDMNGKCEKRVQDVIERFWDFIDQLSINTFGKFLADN
T6 sequence (P78536 475-563): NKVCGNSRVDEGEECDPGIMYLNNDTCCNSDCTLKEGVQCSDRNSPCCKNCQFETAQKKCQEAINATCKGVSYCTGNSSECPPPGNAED
T3 sequence (P78536 603-671): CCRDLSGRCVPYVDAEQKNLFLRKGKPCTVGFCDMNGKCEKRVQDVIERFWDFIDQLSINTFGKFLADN
Chain of murine ADAM17 M1-671 (p-c-d-mpd) human Fc fusion (murine; human) (Q9Z0F8 18-671 limits assumed, form in doubt): as the sequence (Q9Z0F8 other isoform, or with tags, fused parts or gaps mutant limits assumed, form in doubt) above, with D589N, R593P counted along it
T4 sequence (P78536 223-602): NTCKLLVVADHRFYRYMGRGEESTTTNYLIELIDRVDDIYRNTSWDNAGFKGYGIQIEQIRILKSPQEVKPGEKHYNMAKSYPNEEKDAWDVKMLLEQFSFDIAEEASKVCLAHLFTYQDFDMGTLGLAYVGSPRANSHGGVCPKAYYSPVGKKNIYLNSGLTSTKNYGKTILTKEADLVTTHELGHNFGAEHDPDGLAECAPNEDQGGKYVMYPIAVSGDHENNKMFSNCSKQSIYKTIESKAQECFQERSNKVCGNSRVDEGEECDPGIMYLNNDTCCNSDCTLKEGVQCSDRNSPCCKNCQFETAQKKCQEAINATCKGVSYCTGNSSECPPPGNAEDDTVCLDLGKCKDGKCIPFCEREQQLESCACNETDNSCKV
T8 sequence (P78536 223-563): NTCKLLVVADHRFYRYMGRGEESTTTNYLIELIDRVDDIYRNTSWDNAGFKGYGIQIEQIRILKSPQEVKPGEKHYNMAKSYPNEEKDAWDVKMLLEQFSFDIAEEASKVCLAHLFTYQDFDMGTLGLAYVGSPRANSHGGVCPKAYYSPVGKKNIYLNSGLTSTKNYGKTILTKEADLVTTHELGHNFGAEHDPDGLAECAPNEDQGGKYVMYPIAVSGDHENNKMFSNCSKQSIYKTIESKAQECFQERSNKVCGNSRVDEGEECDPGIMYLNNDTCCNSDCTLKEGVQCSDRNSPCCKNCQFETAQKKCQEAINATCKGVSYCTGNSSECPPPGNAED
T7 sequence (P78536 475-602): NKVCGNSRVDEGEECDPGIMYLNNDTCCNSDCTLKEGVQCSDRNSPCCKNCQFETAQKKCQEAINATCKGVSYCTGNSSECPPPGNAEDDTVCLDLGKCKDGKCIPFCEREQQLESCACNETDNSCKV
T5 sequence (P78536 18-474): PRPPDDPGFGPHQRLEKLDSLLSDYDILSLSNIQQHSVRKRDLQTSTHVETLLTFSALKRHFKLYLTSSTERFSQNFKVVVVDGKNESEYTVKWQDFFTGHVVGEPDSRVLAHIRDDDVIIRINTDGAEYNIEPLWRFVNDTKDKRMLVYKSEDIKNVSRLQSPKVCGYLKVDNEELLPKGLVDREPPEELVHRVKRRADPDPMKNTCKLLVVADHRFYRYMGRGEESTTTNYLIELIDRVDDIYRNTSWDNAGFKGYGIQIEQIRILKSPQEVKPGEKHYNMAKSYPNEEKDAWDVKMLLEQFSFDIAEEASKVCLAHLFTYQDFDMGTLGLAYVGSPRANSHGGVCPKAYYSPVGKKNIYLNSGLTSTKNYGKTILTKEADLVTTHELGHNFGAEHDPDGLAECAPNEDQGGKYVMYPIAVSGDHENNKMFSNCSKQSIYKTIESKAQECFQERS

B1: enzymatically deglycosylated 1022C3 (antibody, V domains shown)
VH: QVTLKESGPGILQPSQTLSLTCSFSGFSLDTSGMGVSWIRQPSGKGLEWLAHIYWDDDKRYNPSLKSRLTISKDTSSNQVFLKITSLDTADTATYYCARRSHFGNYYYAMDYWGQGTSVTVTS
VL: DVQMTQTTSSLSASLGDRVTISCRASQDISSYLNWYQQKPDGTFKLLIFYTSRLQSGVPSKYSGSGSGTDYSLTISNLEQEDIAAYFCQQGKTLPLTFGAGTKLELK
notes: also called 1022C3 enzymatically deglycosylated
[1]
  EC50 (read off the curve): ~0.5 nM

B2: murine monoclonal antibody 1022C3 (antibody, V domains shown)
VH: B1 VH with D30N
VL: B1 VL
modifications: N-glycosylated asparagine in CDR-H1
notes: Murine IgG from hybridoma I-4686, captured by anti-mouse antibody in the SPR assays; also called m1022C3; mAb 1022C3
[2]
  binding result: no binding (tested: 1 µg/ml)
[3]
  response (RU): < 10 RU
[4]
  response (RU): < 10 RU
[5]
  response (RU): 90 to 140 RU
[6]
  Kd: 1.27 nM
  koff: 0.00036 s⁻¹
  kon: 284000 M⁻¹ s⁻¹
[7]
  response (RU): < 10 RU
[8]
  response (RU): < 10 RU
[9]
  response (RU): < 10 RU
[10]
  response (RU): < 10 RU
[11]
  response (RU): < 10 RU
[12]
  response (RU): < 10 RU
[1]
  EC50 (read off the curve): ~0.5 nM
